The results in this text go back to US20260125454A1 (SHANGHAI JUNSHI BIOSCIENCES, published 2026).

This experiment addresses T1, Biotin-huCGRPaSA (human, not fully specified; biotin (position not given)).
T1 construct: exact construct ('aSA') not explained; also called Biotin CGRPaSA; full-length (1-37) CGRP
T1 peptide: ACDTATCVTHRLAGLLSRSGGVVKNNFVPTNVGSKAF
As to the kind of experiment: ELISA, supernatant; relative to chimeric C245. The method, boiled down:
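Plates coated with biotin-CGRPaSA at 1.0 μg/mL (90 min, 37°C) and blocked with 2% BSA. Humanized antibodies and chimeric C245 reference, 2.5-fold serial dilutions from 1000 ng/mL, bound 60 min at 37°C. Detection by HRP anti-human IgG (Fc), TMB 15 min, read at 450/620 nm.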

B1: hu146 (antibody, V domains shown)
VH: QVQLVQSGAEVKKPGASVKVSCKTSGYTFTDYNMHWVRQAPGQRLEWMGYISPYNGGTAYNQKFKFRVTLTVDTSSSTAYMELSSLRSEDTAVYYCAREGLGGYWGQGTLVTVSS
VL: EIVLTQSPATLSLSPGERATLSCKASQNIDYDGYAYLNWYQQKPGQAPRVLIYSVFNLESGIPARFSGSGSGTDFTLTISSLEPEDFAVYYCQQSNEFPYTFGQGTKLEIK
notes: 3E5 HC-1/1A2 LC2-3
With B1, the “Relative binding activity, %” value was determined as 107%.

B2: hu156 (antibody, V domains shown)
VH: QVQLVQSGAEVKKPGASVKVSCKTSGYTFTDYNMHWVRQAPGQRLEWMGYISPYNGGTAYNQKFKFRVTLTVDTSSSTAYMELSSLRSEDTAVYYCAREGLGGYWGQGTLVTVSS
VL: DIQLTQSPSSLSASVGDRVTITCKASQNIDYGGYSYMNWYQQKPGKAPKVLIYSVFNLESGVPSRFSGSGSGTDFTLTISSLQPEDFATYYCQQSNEAPYTFGQGTKLEIK
notes: 3E5 HC-1/3H10 LC2-2
Take B2: the “Relative binding activity, %” value came out at 32%.

B3: hu155 (antibody, V domains shown)
VH: QVQLVQSGAEVKKPGASVKVSCKTSGYTFTDYNMHWVRQAPGQRLEWMGYISPYNGGTAYNQKFKFRVTLTVDTSSSTAYMELSSLRSEDTAVYYCAREGLGGYWGQGTLVTVSS
VL: DIVLTQSPDSLAVSLGERATINCKASQNIDYGGYSYMNWYQQKPGQPPKVLIYSVFNLESGVPDRFSGSGSGTDFTLTISSLQAEDVAVYYCQQSNEAPYTFGQGTKLEIK
notes: 3E5 HC-1/3H10 LC2-1
With B3, the “Relative binding activity, %” value turned out to be 74%.

B4: hu177 (antibody, V domains shown)
VH: QVQLVQSGAEVKKPGASVKVSCKASGYTFTDYNMHWVRQAPGQGLEWMGYISPYNGGTAYNQKFKFRVTLTVDTSSSTAYMELSRLRSDDTVVYYCAREGLGGYWGQGTLVTVSS
VL: DIVLTQSPDSLAVSLGERATINCKASQNIDFDGYAYMNWYQHKPGQPPKVLIYSVFNLESGVPDRFSGSGSGTDFTLTISSLQAEDVAVYYCQQSHEVPYTFGQGTKLEIK
notes: 3E5 HC-3/1F5 LC1-4
With B4, the “Relative binding activity, %” value was determined as 25%.

B5: hu182 (antibody, V domains shown)
VH: QVQLVQSGAEVKKPGASVKVSCKASGYTFTDYNMHWVRQAPGQGLEWMGYISPYNGGTAYNQKFKFRVTLTVDTSSSTAYMELSRLRSDDTVVYYCAREGLGGYWGQGTLVTVSS
VL: DIQLTQSPSSLSASVGDRVTITCKASQNIDYGGYSYMNWYQQKPGKAPKVLIYSVFNLESGVPSRFSGSGSGTDFTLTISSLQPEDFATYYCQQSNEAPYTFGQGTKLEIK
notes: 3E5 HC-3/3H10 LC2-2
As to B5, the “Relative binding activity, %” value was found to be 31%.

B6: hu181 (antibody, V domains shown)
VH: QVQLVQSGAEVKKPGASVKVSCKASGYTFTDYNMHWVRQAPGQGLEWMGYISPYNGGTAYNQKFKFRVTLTVDTSSSTAYMELSRLRSDDTVVYYCAREGLGGYWGQGTLVTVSS
VL: DIVLTQSPDSLAVSLGERATINCKASQNIDYGGYSYMNWYQQKPGQPPKVLIYSVFNLESGVPDRFSGSGSGTDFTLTISSLQAEDVAVYYCQQSNEAPYTFGQGTKLEIK
notes: 3E5 HC-3/3H10 LC2-1
Consider B6, for which the “Relative binding activity, %” value amounted to 67%.

B7: hu85 (antibody, V domains shown)
VH: QVQLVQSGAEVKKPGASVKVSCKASGYTFIDFNMHWVRQAPGQRLEWMGYIYPYNADVVYNQDFTNRVTLTVDTSSSTAYMELSSLRSEDTAVYYCAREGLGGYWGQGTLVTVSS
VL: DIVLTQSPASLAVSPGQRATITCKASQNIDFDGYAYMNWYQQKPGQPPKVLIYSVFNLESGVPARFSGSGSGTDFTLTINPVEADDTANYYCQQSHEVPYTFGQGTKLEIK
notes: 1F5 HC-5/1F5 LC1-3
As to B7, the “Relative binding activity, %” value is 76%.

B8: hu189 (antibody, V domains shown)
VH: QVQLVQSGAEVKKPGASVKVSCKTSGYTFTDYNMHWVRQAPGQRLEWMGYISPYNAGTAYNQKFKFRVTLTVDTSSSTAYMELSSLRSEDTAVYYCAREGLGGYWGQGTLVTVSS
VL: DIVLTQSPASLAVSPGQRATITCKASQNIDFDGYAYMNWYQQKPGQPPKVLIYSVFNLESGVPARFSGSGSGTDFTLTINPVEADDTANYYCQQSHEVPYTFGQGTKLEIK
notes: 3E5 HC-4/1F5 LC1-3
In the case of B8, the “Relative binding activity, %” value was found to be 73%.

B9: hu91 (antibody, V domains shown)
VH: QVQLVQSGAEVKKPGASVKVSCKASGYTFIDFNMHWVRQAPGQRLEWMGYIYPYNADVVYNQDFTNRVTLTVDTSSSTAYMELSSLRSEDTAVYYCAREGLGGYWGQGTLVTVSS
VL: DIQLTQSPSSLSASVGDRVTITCKASQNIDYGGYSYMNWYQQKPGKAPKVLIYSVFNLESGVPSRFSGSGSGTDFTLTISSLQPEDFATYYCQQSNEAPYTFGQGTKLEIK
notes: 1F5 HC-5/3H10 LC2-2
B9: the “Relative binding activity, %” value came out at 98%.

B10: hu104 (antibody, V domains shown)
VH: QVQLVQSGAEVKKPGASVKVSCKASGYTFTDYNMHWVRQAPGQRLEWMGYVYPYNGGSAYNQKFKSRVTLTVDTSSSTAYMELSSLRSEDTAVYYCAREGLGGYWGQGTLVTVSS
VL: DIQLTQSPSSLSASVGDRVTITCKASQNIDYGGYSYMNWYQQKPGKAPKVLIYSVFNLESGVPSRFSGSGSGTDFTLTISSLQPEDFATYYCQQSNEAPYTFGQGTKLEIK
notes: 2A2 HC-1/3H10 LC2-2
Turning to B10, the “Relative binding activity, %” value is 45%.

B11: hu103 (antibody, V domains shown)
VH: QVQLVQSGAEVKKPGASVKVSCKASGYTFTDYNMHWVRQAPGQRLEWMGYVYPYNGGSAYNQKFKSRVTLTVDTSSSTAYMELSSLRSEDTAVYYCAREGLGGYWGQGTLVTVSS
VL: DIVLTQSPDSLAVSLGERATINCKASQNIDYGGYSYMNWYQQKPGQPPKVLIYSVFNLESGVPDRFSGSGSGTDFTLTISSLQAEDVAVYYCQQSNEAPYTFGQGTKLEIK
notes: 2A2 HC-1/3H10 LC2-1
Turning to B11, the “Relative binding activity, %” value worked out at 88%.

B12: hu94 (antibody, V domains shown)
VH: QVQLVQSGAEVKKPGASVKVSCKASGYTFTDYNMHWVRQAPGQRLEWMGYVYPYNGGSAYNQKFKSRVTLTVDTSSSTAYMELSSLRSEDTAVYYCAREGLGGYWGQGTLVTVSS
VL: EIVLTQSPATLSLSPGERATLSCKASQNIDYDGYAYLNWYQQKPGQAPRVLIYSVFNLESGIPARFSGSGSGTDFTLTISSLEPEDFAVYYCQQSNEFPYTFGQGTKLEIK
notes: 2A2 HC-1/1A2 LC2-3
As to B12, the “Relative binding activity, %” value was 48%.

B13: hu190 (antibody, V domains shown)
VH: QVQLVQSGAEVKKPGASVKVSCKTSGYTFTDYNMHWVRQAPGQRLEWMGYISPYNAGTAYNQKFKFRVTLTVDTSSSTAYMELSSLRSEDTAVYYCAREGLGGYWGQGTLVTVSS
VL: DIVLTQSPDSLAVSLGERATINCKASQNIDFDGYAYMNWYQHKPGQPPKVLIYSVFNLESGVPDRFSGSGSGTDFTLTISSLQAEDVAVYYCQQSHEVPYTFGQGTKLEIK
notes: 3E5 HC-4/1F5 LC1-4
Turning to B13, the “Relative binding activity, %” value came to 34%.

B14: hu98 (antibody, V domains shown)
VH: QVQLVQSGAEVKKPGASVKVSCKASGYTFTDYNMHWVRQAPGQRLEWMGYVYPYNGGSAYNQKFKSRVTLTVDTSSSTAYMELSSLRSEDTAVYYCAREGLGGYWGQGTLVTVSS
VL: DIVLTQSPASLAVSPGQRATITCKASQNIDFDGYAYMNWYQQKPGQPPKVLIYSVFNLESGVPARFSGSGSGTDFTLTINPVEADDTANYYCQQSHEVPYTFGQGTKLEIK
notes: 2A2 HC-1/1F5 LC1-3
As for B14, the “Relative binding activity, %” value came to 76%.

B15: hu169 (antibody, V domains shown)
VH: QVQLVQSGAEVKKPGASVKVSCKASGYTFTDYNMHWVRQAPGQRLEWMGYISPYNGGTAYNQKFKFRVTLTVDTSSSTAYMELSSLRSEDTAVYYCAREGLGGYWGQGTLVTVSS
VL: DIQLTQSPSSLSASVGDRVTITCKASQNIDYGGYSYMNWYQQKPGKAPKVLIYSVFNLESGVPSRFSGSGSGTDFTLTISSLQPEDFATYYCQQSNEAPYTFGQGTKLEIK
notes: 3E5 HC-2/3H10 LC2-2
Regarding B15, the “Relative binding activity, %” value stood at 16%.

B16: hu168 (antibody, V domains shown)
VH: QVQLVQSGAEVKKPGASVKVSCKASGYTFTDYNMHWVRQAPGQRLEWMGYISPYNGGTAYNQKFKFRVTLTVDTSSSTAYMELSSLRSEDTAVYYCAREGLGGYWGQGTLVTVSS
VL: DIVLTQSPDSLAVSLGERATINCKASQNIDYGGYSYMNWYQQKPGQPPKVLIYSVFNLESGVPDRFSGSGSGTDFTLTISSLQAEDVAVYYCQQSNEAPYTFGQGTKLEIK
notes: 3E5 HC-2/3H10 LC2-1
As for B16, the “Relative binding activity, %” value came to 68%.

B17: hu99 (antibody, V domains shown)
VH: QVQLVQSGAEVKKPGASVKVSCKASGYTFTDYNMHWVRQAPGQRLEWMGYVYPYNGGSAYNQKFKSRVTLTVDTSSSTAYMELSSLRSEDTAVYYCAREGLGGYWGQGTLVTVSS
VL: DIVLTQSPDSLAVSLGERATINCKASQNIDFDGYAYMNWYQHKPGQPPKVLIYSVFNLESGVPDRFSGSGSGTDFTLTISSLQAEDVAVYYCQQSHEVPYTFGQGTKLEIK
notes: 2A2 HC-1/1F5 LC1-4
Regarding B17, the “Relative binding activity, %” value is 74%.

B18: hu185 (antibody, V domains shown)
VH: QVQLVQSGAEVKKPGASVKVSCKTSGYTFTDYNMHWVRQAPGQRLEWMGYISPYNAGTAYNQKFKFRVTLTVDTSSSTAYMELSSLRSEDTAVYYCAREGLGGYWGQGTLVTVSS
VL: EIVLTQSPATLSLSPGERATLSCKASQNIDYDGYAYLNWYQQKPGQAPRVLIYSVFNLESGIPARFSGSGSGTDFTLTISSLEPEDFAVYYCQQSNEFPYTFGQGTKLEIK
notes: 3E5 HC-4/1A2 LC2-3
Take B18: the “Relative binding activity, %” value came out at 19%.

B19: hu150 (antibody, V domains shown)
VH: QVQLVQSGAEVKKPGASVKVSCKTSGYTFTDYNMHWVRQAPGQRLEWMGYISPYNGGTAYNQKFKFRVTLTVDTSSSTAYMELSSLRSEDTAVYYCAREGLGGYWGQGTLVTVSS
VL: DIVLTQSPASLAVSPGQRATITCKASQNIDFDGYAYMNWYQQKPGQPPKVLIYSVFNLESGVPARFSGSGSGTDFTLTINPVEADDTANYYCQQSHEVPYTFGQGTKLEIK
notes: 3E5 HC-1/1F5 LC1-3
B19: the “Relative binding activity, %” value stood at 64%.

B20: hu164 (antibody, V domains shown)
VH: QVQLVQSGAEVKKPGASVKVSCKASGYTFTDYNMHWVRQAPGQRLEWMGYISPYNGGTAYNQKFKFRVTLTVDTSSSTAYMELSSLRSEDTAVYYCAREGLGGYWGQGTLVTVSS
VL: DIVLTQSPDSLAVSLGERATINCKASQNIDFDGYAYMNWYQHKPGQPPKVLIYSVFNLESGVPDRFSGSGSGTDFTLTISSLQAEDVAVYYCQQSHEVPYTFGQGTKLEIK
notes: 3E5 HC-2/1F5 LC1-4
Consider B20, for which the “Relative binding activity, %” value came out at 56%.
